Laboratory results from the nanobody polyreactivity screen of Harvey et al. (2022).

Experiment: yeast display, Sf9 membrane polyspecificity reagent, FACS + sequencing; frameworks hold sequencing errors
Outline: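 After 36–48 hours of galactose induction, yeast (Saccharomyces cerevisiae BJ5465) displaying a synthetic nanobody library were stained at 4 °C for 1 hour with 10% biotinylated, detergent-solubilized Sf9 membrane reagent. Streptavidin microbeads enriched the stained cells before FACS sorting into low and high (top ~1%) gates on anti-HA and streptavidin fluorescence. Each clone's polyreactivity label reflects its gate of origin.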
With “QVQLVDSGGGLVQAGGSLRLNFAASGLTFDRYGMGWYRQGPGKERELVAAIDGSGTSTYYADSVKGRFTISRDNAKNTVYLQMNSLKPEDTAVYYCAAGALSWYDYWGQGTQVTVSS” the “polyreactivity (PSR sort gate)” value was “low polyreactivity”. In the case of “QVQLVDSGGGLVQAGGSLRLRCAASGLTFYTYAMGWYRQAPGKERELVAANRWRGGRTYYADSVKGRFTISRDNAKNTVYLQMNSLKPDDTAVYYCAADYSTLYKYDYWGQGTQVTVSS”, the “polyreactivity (PSR sort gate)” value is reported as “low polyreactivity”. In the case of “QVQLVDSGGGLVQAGGSLRLSCAASGFIFDLYAMGWYRQAPGKERELVAAITTSGGTTYYADSVKGRFTISRDNAKNTVYLQMNSLIPEDTAVYFCAARRYSWYYYWGQGTQVTVSS”, the “polyreactivity (PSR sort gate)” value is reported as “high polyreactivity”. For “QVQLVDSGGGLVQAGGSLRLSCAASGFIFGINAMGWYRQAPGKERELVSAISTGDRTNYADSVKRRFTISRDNAKNTVYLQMYSLKPEDTAVYYFAKDWRRNRPYEWTYDYWGQGTQVTVSS”, the “polyreactivity (PSR sort gate)” value was “low polyreactivity”. In the case of “QVQLVDSGGGLVQAGGSLRLSCAASGFIFQYYAMGWYRQAPGKEMGLVAAISFSGGSTYYADSVKGRFTISRDNAKNTVYLQMNSLKPEDTAVYYCAAEVYSVGDYSGHDYYWGQGTQVTVSS”, the “polyreactivity (PSR sort gate)” value is reported as “low polyreactivity”. With “QVQLVDSGGGLVQAGGSLRLSCAASGFTFFRYAMGWYRQAPGKERELVAAITSGGGRTYYADSVKGRFTISRDNAKNTVYLQMNSLNPEDTAVYYCAARVYFSFITPIKYNYWGQGTQVTVSS” the “polyreactivity (PSR sort gate)” value was “high polyreactivity”. In the case of “QVQLVDSGGGLVQAGGSLRLSCAASGFTFNGYAMGWSRPAPGKEREFVAAISSSGGSTYYADSVKGRFTISRDNAKNTVYLQMNSLKPDDTAVYYCNAVGWRKKYDYWGQGTQVTVSS”, the “polyreactivity (PSR sort gate)” value is reported as “high polyreactivity”. With “QVQLVDSGGGLVQAGGSLRLSCAASGFTIPTYAMGWYRQAPGKERELVAAISGDGDSTYYADSVKGRFTISRDNAKNTVYLQMNSLKPEDTAVYYCAAEPNVYFSVFVLFPSDYWGQGTQVTVSS” the “polyreactivity (PSR sort gate)” value was “low polyreactivity”. For “QVQLVDSGGGLVQAGGSLRLSCAASGITFYVNAMGWYRQAPRKERELVASISTGGSTNYADSVKGRFTISRDNAKNTVYLQMNSLKPEDTAVYYCAARVDYHPSLRDYWGQGTQVTVSS”, the “polyreactivity (PSR sort gate)” value was “low polyreactivity”. In the case of “QVQLVDSGGGLVQAGGSLRLSCAASGITSHYYAMGWYRQAPGKERELVAAITSSGSTYYADSVKGRFTISRDNAKNTVYLQMNSLKPEVTAVYYCATTVWYKKAPYPDGDYWGQGTQVTVSS”, the “polyreactivity (PSR sort gate)” value is reported as “low polyreactivity”. For “QVQLVDSGGGLVQAGGSLRLSCAASGLIFEVYAMGWYRQAQGKERELVAAISWRGGSTDYADSVKGRFTISRDNAKNTVYLQMNSLKPEDTAFYYCAKGYRGRTTAGNLWEFDYWGQGTQVTVSS”, the “polyreactivity (PSR sort gate)” value was “high polyreactivity”. For “QVQLVDSGGGLVQAGGSLRLSCAASGLIFKLNAMGWYRQAPGKERELVAAIRASTGSTYYADSVKGRFTISRDNAKNTVYLQMNSLKPEDTADYYCAVRLRWYFFLMDYWGQGTQVTVSS”, the “polyreactivity (PSR sort gate)” value was “high polyreactivity”. For “QVQLVDSGGGLVQAGGSLRLSCAASGLIFPYNAMGWYRQAPGKERELVAAIDSGVTTYYADSVKGRFTISRDNAKNTVYLQMNSLKPEDTAVYYCAAVGLPGPEGDSWGQGTQVTVSS”, the “polyreactivity (PSR sort gate)” value was “low polyreactivity”. In the case of “QVQLVDSGGGLVQAGGSLRLSCAASGLTFYHYTMGWYRQAPGKERELVPAITKNGGSTYYADSVKGRFTISRDNAKNTVYLQMNSLKPEDSAVYYCAAYEFGLLRYYSGRSYYYWGQGTQVTVSS”, the “polyreactivity (PSR sort gate)” value is reported as “high polyreactivity”. In the case of “QVQLVDSGGGLVQAGGSLRLSCAASGNTFGINDMGWYRKAPGKERELVAAIRISGGSTYYADSVKGRFTISRDNAKNTVYLQMNSLKPEDTAVYYCAKYGPRASLYRTGRYYWGQGTQVTVSS”, the “polyreactivity (PSR sort gate)” value is reported as “high polyreactivity”. For “QVQLVDSGGGLVQAGGSLRLSCAASGNTFRYYVMGWYRQAPGKERELVAASTSSGGNTYYADSVKGRFTISRDNAKNTVYLQMNSLKPEDTAVYYCAASYDINYYFSDYNYWGQGTQVTVSS”, the “polyreactivity (PSR sort gate)” value was “high polyreactivity”. With “QVQLVDSGGGLVQAGGSLRLSCAASGRIFGRYAMGWSRQAPGKESELVASITYRGGGTYYADSVKGRFTISRDNAKNTVYLQMNSLKPEDTAVYYCNAYFAGVLRRNYRGQGTQVTVSS” the “polyreactivity (PSR sort gate)” value was “high polyreactivity”. With “QVQLVDSGGGLVQAGGSLRLSCAASGRIFIGYAMGWNRQAPWRERELVAAITSGGGTYYADSVKARFTISRDNAKNTVYLQMNSLKPEDTAVYFCAGAQRYPIKYYFWGQGTQVTVSS” the “polyreactivity (PSR sort gate)” value was “low polyreactivity”. With “QVQLVDSGGGLVQAGGSLRLSCAASGRIFYAYAMGGYRQAPGKERELVARISASGGNTYYADSVKGRFTISRDNAKNSVYLQMNSLKPEDTAVYYCNKLFWYGRQYDYWGQGTQVTVSS” the “polyreactivity (PSR sort gate)” value was “high polyreactivity”. In the case of “QVQLVDSGGGLVQAGGSLRLSCAASGRIFYSNAMGWYRQAPGKVRELVAAITTSGASTYYADSVKGRFTISRDNAKNTVYLQLISMKPEDTAVYYCATYAVVYPFAMDYWGQGTQVTVSS”, the “polyreactivity (PSR sort gate)” value is reported as “low polyreactivity”. For “QVQLVDSGGGLVQAGGSLRLSCAASGRIFYYYAMGWYRQAPGKERELVAAISWNGGTTYYAESVKGRFTISRDNAKNTVYLQINSLKPEDTAVYYCNAVLYRGPPGSRMDYWGQGTQVTVSS”, the “polyreactivity (PSR sort gate)” value was “high polyreactivity”. In the case of “QVQLVDSGGGLVQAGGSLRLSCAASGRISSQYAMGWYRQAPGKERELVAAISTSGDRTYYADSVKGRFTISRDNAKNTVYLQMNSLKPEDTAVYYCAKDGPYTYGRDISEYWGQGTQVTVSS”, the “polyreactivity (PSR sort gate)” value is reported as “low polyreactivity”. In the case of “QVQLVDSGGGLVQAGGSLRLSCAASGRTCYTNAMGWYRQAPGKERELVAAINRSGGSTYYADSVKGRFTISRDNAKNTVYLQMNSLKPEDTAVYYCNKAFTHTKYLSPIAYEYGYWGQGTQVTVSS”, the “polyreactivity (PSR sort gate)” value is reported as “low polyreactivity”. For “QVQLVDSGGGLVQAGGSLRLSCAASGRTFAFNYAMGWYRQAPGKERELVAAISSSGTRTRYADSVKGRFTISRDNAKNTVYLQMNSLKPEDTAVYYCSKRSLGIGRSNYWGQGTQVTVSS”, the “polyreactivity (PSR sort gate)” value was “high polyreactivity”. With “QVQLVDSGGGLVQAGGSLRLSCAASGRTFGAYAMGWYRQAPGKERELVATITVSGGSTYYADSVKGRFTISRDNAKNTVYLQMNSLKPEDSAVYYCAAAYDWWQFYSWTIAYDYWGQGTQVTVSS” the “polyreactivity (PSR sort gate)” value was “low polyreactivity”. In the case of “QVQLVDSGGGLVQAGGSLRLSCAASGRTFLFNSMGWYRQATGKQRELVAGITWSSGSTYYADSVKGRITISRDNAKNTVYLQMNSLKPEDTAVYYCAAYHFHDNDYWGQGTQVTVSS”, the “polyreactivity (PSR sort gate)” value is reported as “low polyreactivity”. In the case of “QVQLVDSGGGLVQAGGSLRLSCAASGRTFPSYGMGWYRQAPGKERELVAPITGGGSTYYADSVKGRFTISRDNAKNTVYLQINSLKPEDTAVYYCAKRPYYNRHYHYRSKYDYWGLGTQVTVSS”, the “polyreactivity (PSR sort gate)” value is reported as “high polyreactivity”. For “QVQLVDSGGGLVQAGGSLRLSCAASGRTFRLNDMGWYRQAPGKDRELVAAITRSGGSTYYADSVKGRFTISRDNAKNTVYFQMNSLKPEDTAVYYCNAVRSRYYDDYDYWGQGTQVTVSS”, the “polyreactivity (PSR sort gate)” value was “high polyreactivity”. In the case of “QVQLVDSGGGLVQAGGSLRLSCAASGRTFRSYAMGWYRQAPGKERELVAAITWNGGGTYYADSVKGRFTMSRDNAKNTVYLQMNSLKPEETAVYYCAGRGRTDSYWRFYHWGQGTQVTVSS”, the “polyreactivity (PSR sort gate)” value is reported as “high polyreactivity”. In the case of “QVQLVDSGGGLVQAGGSLRLSCAASGRTFRTNAMGWYRQAPGKERELVAAISSNGGTTYYADSVKGRFTISRDNAKNTVYLQMNSLKPEDTAVYYCNIESQYLWPEFDYWGQGTQVTVSS”, the “polyreactivity (PSR sort gate)” value is reported as “low polyreactivity”. With “QVQLVDSGGGLVQAGGSLRLSCAASGRTFTWYAMGWYRQAPGKERELVSAITNGGRTYADSVKGRFTISRDNAKNTVYLQMNSLKPEDTAVYYCAKVQYRGYLPHQRGRERDYDYWGQGTQVTVSS” the “polyreactivity (PSR sort gate)” value was “low polyreactivity”.
